# Results: US20160152729A1 (Novo Nordisk, published 2016)
# Legend:
# human TFPIα [1] = target: T1, human TFPIα (human, UniProt P10646 29-304); assay: cell-based or functional assay
# human TFPIα [2] = target: T1, human TFPIα; assay: cell-based or functional assay; remark: listed apart in the source
# human TFPIα [3] = target: T1, human TFPIα; assay: cell-based or functional assay; remark: listed apart in the source
# human TFPIα [4] = target: T1, human TFPIα; assay: cell-based or functional assay; remark: listed apart in the source
# human TFPIα [5] = target: T1, human TFPIα; assay: cell-based or functional assay; remark: listed apart in the source
# human TFPIα [6] = target: T1, human TFPIα; assay: SPR Biacore T200; mAb captured on anti-mouse Ig; TFPI as analyte; 1:1 model
# Excerpt: (§1) Binding interaction data were obtained by means of Surface Plasmon Resonance in a Biacore T200 instrument. Polyclonal rabbit anti-mouse immunoglobulin (Mouse Antibody Capture Kit, GE Healthcare) was immobilized to a series S CM4 sensor chip (GE Healthcare) in flow-cells 1-4 using the amine coupling protocol available with the Biacore T-200 control software version 2.0 (GE Healthcare) and the reagents provided with the Amine Coupling Kit (GE Healthcare). The relevant mouse monoclonal antibody was captured in flow cell 2, 3, or 4 at a fixed concentration. Different concentrations of human TFPIα or TFPI (1-79) were tested by diluting the sample in running buffer (10 mM HEPES, pH 7.4, 300 mM NaCl, 5 mM CaCl₂, 0.05% Surfactant P20, 1 mg/ml BSA). Each sample was assayed using 300 seconds of contact time followed by 420-600 seconds of dissociation time at 30 μl/min flow rate. A buffer blank was also assayed. The sensor surface was regenerated with 10 mM Glycine pH 1.7 either for 180 sec at 30 μl/min flow rate or with two cycles each of 30 seconds at 30 μl/min flow rate.
# (§2) The Biacore T200 Evaluation software (version 2.0) was used to analyse the data. Determination of binding constants (kₐ, kd, KD) was obtained assuming a 1:1 interaction of TFPI and the monoclonal antibody of interest.
# human TFPI (1-79) = target: T2, human TFPI (1-79) (human, UniProt P10646 29-107); assay: as above
# T2 construct: Acidic N-terminal region and KPI-1 domain
# Excerpt: as §1, §2
# human TFPIα [7] = target: T1, human TFPIα; assay: SPR Biacore T200; Fab captured on Human Fab Binder; TFPIα as analyte; 1:1 model; 25 °C
# Protocol: Human Fab Binder (Human Fab Capture Kit, GE Healthcare) was immobilized to a series S CM4 sensor chip (GE Healthcare) in flow-cells 1-4 at 9000-10000 response units (RU) using the amine coupling protocol available within the Biacore T-200 control software (GE Healthcare) and the reagents provided with the Amine Coupling Kit (GE Healthcare). […] Different concentrations of human TFPIα were tested by diluting the sample in running buffer (10 mM HEPES, pH 7.4, 300 mM NaCl, 5 mM CaCl₂, 0.05% Surfactant P20, 1 mg/ml BSA). Each sample was assayed using 300 seconds of contact time followed by 600 seconds of dissociation time at 50 μl/min flow rate. A buffer blank was also assayed. The sensor surface was regenerated with 10 mM Glycine pH 2.1 with two cycles each of 30 seconds at 50 μl/min flow rate. The analysis temperature was 25° C. and the sample compartment temperature 10° C.
# as §2
Binder,"Thrombin peak height (Peak); thrombin generation in FVIII-neutralised plasma + 5 nM TFPIα, 10 nM antibody (human TFPIα [1]) [nM]","Thrombin peak height (Peak); thrombin generation in FVIII-neutralised plasma, no TFPIα added (plasma TFPI), 10 nM antibody (human TFPIα [1]) [nM]","time to peak (ttPeak); thrombin generation in FVIII-neutralised plasma + 5 nM TFPIα, 10 nM antibody (human TFPIα [1]) [min]","time to peak (ttPeak); thrombin generation in FVIII-neutralised plasma, no TFPIα added (plasma TFPI), 10 nM antibody (human TFPIα [1]) [min]","Thrombin peak height (Peak); thrombin generation in FVIII-neutralised plasma + 20 nM TFPIα, 200 nM antibody (human TFPIα [2]) [nM]","FXa activity (%); remaining FXa amidolytic activity after 40 min, 32 nM mAb pre-incubated with 8 nM TFPIα (human TFPIα [3]) [%]","FVIIa/sTF activity (%); 150 nM TFPIα, 200 nM antibody (human TFPIα [4]) [%]","FXa activity (%) after 100 min incubation; 4 nM TFPIα, 20 nM antibody (human TFPIα [4]) [%]","FXa activity (%); FXa generated after 30 min by FVIIa/Innovin/FX with 4 nM TFPIα, 64 nM antibody (human TFPIα [5]) [%]",Kd (human TFPIα [6]) [nM],Kd (human TFPI (1-79)) [nM],Kd (human TFPIα [7]) [nM],koff (human TFPIα [6]) [s⁻¹],kon (human TFPIα [6]) [M⁻¹ s⁻¹],koff (human TFPI (1-79)) [s⁻¹],kon (human TFPI (1-79)) [M⁻¹ s⁻¹]
"mAb 2F22 (antibody, IgG1, V domains shown, Murine mIgG1, kappa light chain) VH: QVQLKQSGPGLVQPSQSLSITCTVSGFSLTNYGVHWVRQSPGKGLEWLAVIWRGGSIDYNAAFMSRLSITKDNSKSQVFFKMNSLQADDTAIYYCAKNSHGNYVGYAMDYWGQGTSVTVSS VL: GIVMTQSQKFMSTTVGDRVSITCKASQSVGPAVAWYQQKPGQSPKLLIYSASNRYTGVPDRFTGSGSGADFTLTISNLHSEDLADYFCQQYTSYPTFGGGTKLEIKR",46.5,100,11.3,9.1,23.7,50.4,88.3,60.8,40.5,0.688,0.965,–,–,–,–,–
"Fab 0296 (Fab, V domains shown, Chimeric Fab of mAb 2F22; heavy chain truncated after the human IgG4 hinge lysine; also called anti-TFPI2F22 Fab) VH: QVQLKQSGPGLVQPSQSLSITCTVSGFSLTNYGVHWVRQSPGKGLEWLAVIWRGGSIDYNAAFMSRLSITKDNSKSQVFFKMNSLQADDTAIYYCAKNSHGNYVGYAMDYWGQGTSVTVSS VL: GIVMTQSQKFMSTTVGDRVSITCKASQSVGPAVAWYQQKPGQSPKLLIYSASNRYTGVPDRFTGSGSGADFTLTISNLHSEDLADYFCQQYTSYPTFGGGTKLEIKR",–,–,–,–,–,–,–,–,–,–,–,0.72,–,–,–,–
"Fab 0295 (Fab, V domains shown, Chimeric Fab of mAb 2F22; heavy chain truncated after the first cysteine of the human IgG4 hinge) VH: QVQLKQSGPGLVQPSQSLSITCTVSGFSLTNYGVHWVRQSPGKGLEWLAVIWRGGSIDYNAAFMSRLSITKDNSKSQVFFKMNSLQADDTAIYYCAKNSHGNYVGYAMDYWGQGTSVTVSS VL: GIVMTQSQKFMSTTVGDRVSITCKASQSVGPAVAWYQQKPGQSPKLLIYSASNRYTGVPDRFTGSGSGADFTLTISNLHSEDLADYFCQQYTSYPTFGGGTKLEIKR",–,–,–,–,–,–,–,–,–,–,–,0.41,–,–,–,–
"mAb 2F3 (antibody, IgG1, V domains shown, Murine mIgG1, kappa light chain) VH: QVQLKQSGPGLVQPSQSLSITCTVSGFSLSSYGVHWVRQSPGKGLEWLGVIWRGGSTDFNAAFMSRVSFTKDNSKSQVFFKMNSLQADDTAIYYCAKNSHGNYVGYAMDYWGQGTSVTVSS VL: DIVMTQSQKFMSTTVGDKVSIPCKASENVGAAVAWYQQKPGQSPTLLIYSASNRYTGIPDRFTGSGSGTDFTLTIRTVQSEDLADYFCQQYTNYPTFGGGTKLEIKR",28.6,88.4,13.8,9.3,20.9,48.9,88.6,58.1,36.6,0.448,0.561,–,7.69e-05,172000,0.000154,274000
"mAb 1F56 (antibody, V domains shown, murine antibody from hybridoma) VH: DVQLQESGPGLVKPSQSLSLTCTVSGYSITSDYAWNWIRQFPGNKLEWMGYISYSGSTSYNPSLKSRISITRDTSKNQFFLQLNSVTTEDTATYYCARWAYDGPWGQGTLVTVSA VL: QIVLSQSPALLSASPGEKVTMTCRASSSVSHMHWYQQKPGSSPKPWIYATSNLASGVPARFSGSGSGTSYSLTITRVEAEDAATYYCQQWSSNPFTFGSGTKLEIKR",3.7,35.2,47.8,8.9,–,5.5,–,–,18.4,9.81,13.5,–,0.00361,368000,0.00505,375000
"mAb 1F91 (antibody, IgG1, V domains shown, Murine mIgG1, kappa light chain) VH: DVQLQESGPGLVKPSQSLSLTCTVSGYSITSDYAWNWIRQFPGNKLEWMGYISYSGSTSYNPSLKSRISITRDTSKNQFFLQLNSVTTEDTATYYCARWAYDGPWGQGTLVTVSA VL: QIVLSQSPALLSASPGEKVTMTCRASSSVSHMHWYQQKPGSSPKPWIYATSNLASGVPARFSGSGSGTSYSLTITRVEAEDAATYYCQQWSSNPFTFGSGTKLEIKR",3.6,34.6,51.8,9,0,5.8,82.2,5.1,13.9,10,15.1,–,0.00349,347000,0.005,330000
"mAb 2F35 (antibody, IgG1, V domains shown, Murine mIgG1, kappa light chain) VH: EVQLQQSGAELVRPGALVKLSCKASGFNIKDYYIHWVKQRPEQGLEWIGWIDPENGNTIFDPKFQGRASITADTSSNTAYLQLSSLTSEDTAVYYCAGRWYAMDYWGQGTSVTVSS VL: not shown",3.6,30.4,70.3,9.6,0,13.4,61.4,4.2,18.3,6.27,13.3,–,0.00141,224000,0.00251,188000
